Substrate in the data set: Nc1ncnc2c1ncn2C=C=CCO
Kind of data set: Vmax by adenosine deaminase.

Several values for one entry are separate records, joined by “and”; a condition that tells them apart may be missing. Identical values can stand only once.

B1: Adenosine deaminase (Bos taurus), P56658 (protein)
chain: MAQTPAFNKPKVELHVHLDGAIKPETILYYGRKRGIALPADTPEELQNIIGMDKPLSLPEFLAKFDYYMPAIAGCREAVKRIAYEFVEMKAKDGVVYVEVRYSPHLLANSKVEPIPWNQAEGDLTPDEVVSLVNQGLQEGERDFGVKVRSILCCMRHQPSWSSEVVELCKKYREQTVVAIDLAGDETIEGSSLFPGHVKAYAEAVKSGVHRTVHAGEVGSANVVKEAVDTLKTERLGHGYHTLEDATLYNRLRQENMHFEVCPWSSYLTGAWKPDTEHPVVRFKNDQVNYSLNTDDPLIFKSTLDTDYQMTKNEMGFTEEEFKRLNINAAKSSFLPEDEKKELLDLLYKAYGMPSPASAEQCL
With B1, the Vmax (in general, the rate approached at saturating substrate) was 0.41 µM/min and 0.52 µM/min.
